Target: ACE2-Fc, recombinant protein (Sino Biological 10108-H02H) (human, UniProt Q9BYF1)
Assay: BLI

B1: BTN3A2-L-His, recombinant protein (Sino Biological 13515-H08H) (natural protein)
chain: not shown
  Kd: 92.7 ± 0.359 nM

Reference: paper PMC11367481 (eBioMedicine, 2024)
